In the supplement of paper PMC10567573 one finds protein stability index data, which are given here for 72 sequences.

± gives the standard deviation.

The data set can be described thus: protein stability index of a GFP-peptide fusion (GPS, HEK-293T) (PSI 1-6); higher = more stable.
Where [1] appears, read: treatment: DMSO, c terminus: a fixed tail appended.
The mark [2] stands for this setting: treatment: MLN4924 1 uM, 8 h, c terminus: a fixed tail appended.
Setting [3] is: treatment: DMSO, c terminus: native.
The mark [4] stands for this setting: treatment: MLN4924 1 uM, 8 h, c terminus: native.
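Also: 24-mer peptide tiles fused after GFP, lentivirally expressed, FACS-sorted into six equal bins by GFP/DsRed ratio, decoded by Illumina sequencing, PSI is the read-weighted mean bin number.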

Regarding YPTDNTKVMIFKSSYSLSDMVSNI [MIA2], the protein stability index under setting [1] is 2.51 ± 0.62 and the protein stability index under setting [2] amounted to 2.436 ± 0.003.

With RESGAEPQEAVLQQLHQLPRGRLD [LRRC45], the protein stability index by setting is: under setting [1], 5.06 ± 0.3; under setting [2], 5.16 ± 0.25.

KSKPDRKRAESDSRKSSIPNNKEI [PTPRD]: the protein stability index amounted to 5.329 ± 0.046 under setting [1] and 5.46 ± 0.16 under setting [2].

The sequence MAGCRGSLCCCCRWCCCCGERETR [CLCN6] returned a protein stability index under setting [1] of 2.42 ± 0.28 and a protein stability index under setting [2] of 2.98 ± 0.44.

On to QEQIEAVLLNSLQQYRQDQRDGSK [CCND2], for which the protein stability index under setting [1] came to 4.51 ± 0.086 and the protein stability index under setting [2] came out at 4.46 ± 0.13.

Regarding YFMIQALNQKTSEKMKKRKMSNSF [RHOBTB3], the protein stability index is 2.24 ± 0.08 under setting [1] and 2.37 ± 0.33 under setting [2].

Turning to LSALKHAVLGLYLLVFLILVGIFI [SCARA5], the protein stability index was 2.16 ± 0.63 under setting [1] and 2.08 ± 0.14 under setting [2].

In the case of TTTRRIVDGKVVSETNDTKVLRH [KRT18], the protein stability index under setting [3] is 5.19 ± 0.24 and the protein stability index under setting [4] amounted to 5.28 ± 0.3.

For NYEKEEEFLTNELSRKLMQLQHEK [CCDC6], the protein stability index came out at 4.43 ± 0.15 under setting [1] and 4.55 ± 0.38 under setting [2].

In the case of GNKSDLKQLRQVTKEEGLALAREF [RIT1], the protein stability index was found to be 4.31 ± 0.25 under setting [1] and 4.26 ± 0.12 under setting [2].

As for PKRRMRYFDPLRNEYFFDRNRPSF [KCNA3], the protein stability index by setting is: under setting [1], 2.37 ± 0.26; under setting [2], 2.6 ± 0.65.

Take HVPNPPSGISFPSVVDHPMPEERA [HESX1]: the protein stability index by setting is: under setting [1], 3.48 ± 0.74; under setting [2], 3.99 ± 0.52.

For the sequence ILNTTGTYSGKAADVWSLGVMLYT [TRIB1], the protein stability index came to 2.7 ± 0.76 under setting [1] and 2.25 ± 0.6 under setting [2].

Turning to PAFKSMEVANFYYEADCLAAAYGG [CEBPB], the protein stability index was found to be 2.83 ± 0.25 under setting [1] and 2.96 ± 0.13 under setting [2].

Under setting [2], HPFFFALGKILSVELGKQKKKYMP [FADS1] registered a protein stability index of 1.89 ± 0.5.

Take ADHGEPIGRGTKVILHLKEDQTEY [HSP90AB1]: the protein stability index reads like this: under setting [1], 4.76 ± 0.2; under setting [2], 4.89 ± 0.29.

VSTQPAMMVNLRACSAPGGLVPSE [C2CD2L]: the protein stability index is 3.43 ± 0.16 under setting [1] and 3.5 ± 0.14 under setting [2].

Regarding SVDGLTLSPDPEERPGAEGAPLLP [ACBD3], the protein stability index is 5.46 ± 0.19 under setting [1] and 5.54 ± 0.18 under setting [2].

Take VGSALHRESFTSRQKTSGPSVIQE [C10orf62]: the protein stability index is, setting by setting: under setting [1], 4.18 ± 0.15; under setting [2], 4.46 ± 0.2.

For the sequence QNLANEEVRKLTQRLEEMTQRMEA [MATN2], the protein stability index under setting [1] came to 4.67 ± 0.14 and the protein stability index under setting [2] turned out to be 4.87 ± 0.39.

Sequence EIDRSVENTLLNSQMVSTDNSLSS [MIA2] yielded a protein stability index under setting [1] of 4.18 ± 0.35 and a protein stability index under setting [2] of 4.67 ± 0.23.

On to ETFLSFLEYLYTDSCCPAGIFQAM [RHOBTB3], for which the protein stability index reads like this: under setting [1], 2.96 ± 0.48; under setting [2], 2.56 ± 0.35.

As for SGEEFYMLTRRVLQLETVLEGVVS [PKD2L1], the protein stability index runs as follows: under setting [1], 2.17 ± 0.45; under setting [2], 2.56 ± 0.17.

QPPEMIGPMRPEQFSDEVEPATPE [GAGE1]: the protein stability index reads like this: under setting [1], 5.03 ± 0.33; under setting [2], 5.17 ± 0.17.

As to MRYEEEGMSYLYASWMYQLQHGDQ [TEX19], the protein stability index is 2.3 ± 0.29 under setting [1] and 2.13 ± 0.17 under setting [2].

As to VGLRNTLTRIRKWIEHSKLREINF [GLT8D2], the protein stability index is, setting by setting: under setting [1], 2.41 ± 0.3; under setting [2], 1.9 ± 0.31.

On to GSLILPPGPGGTMKRHSSRDAAGK [FCHO1], for which the protein stability index is, setting by setting: under setting [1], 4.68 ± 0.2; under setting [2], 4.56 ± 0.2.

Consider GAAESPYAYSNGIDYKTTTILLDG [RAB40C], for which the protein stability index came out at 3.7 ± 0.39 under setting [1] and 3.67 ± 0.39 under setting [2].

Turning to ENQSSQAELKEAVEEPSSKDVMEK [CHGA], the protein stability index was 5.6 ± 0.12 under setting [1] and 5.72 ± 0.19 under setting [2].

HHRYDDLVRTLYKVQNECPGITRV [CPN1] returned a protein stability index under setting [1] of 2.69 ± 0.34 and a protein stability index under setting [2] of 2.67 ± 0.098.

Take ARAFAQRYLADLLPSVFGSLRDSG [RSPH3]: the protein stability index runs as follows: under setting [1], 2.29 ± 0.41; under setting [2], 2.25 ± 0.28.

Regarding LKFDAYFQEDVPMSTEEQYRIRQV [EFHC1], the protein stability index was found to be 3.44 ± 0.14 under setting [1] and 3.46 ± 0.28 under setting [2].

Take AGLENTVAETECRYALQLQQIQGL [KRT13]: the protein stability index under setting [1] turned out to be 3.12 ± 0.24 and the protein stability index under setting [2] was 2.91 ± 0.19.

Consider IDALLEFDVHPNELTNGVINAAFM [SNAP91], for which the protein stability index is, setting by setting: under setting [1], 2.39 ± 0.38; under setting [2], 2.32 ± 0.36.

Regarding PILQGQIDALLEFDVHPNELTNGV [SNAP91], the protein stability index under setting [1] came to 3.42 ± 0.29 and the protein stability index under setting [2] stood at 3.4 ± 0.45.

Turning to GSAVEVQTYQPPWKALSEFALQSD [ISL2], the protein stability index by setting is: under setting [1], 3.61 ± 0.4; under setting [2], 3.73 ± 0.39.

The sequence CGTPEYLAPEVIQSKGHGRAVDWW [PRKX] gave a protein stability index under setting [1] of 2.72 ± 0.54 and a protein stability index under setting [2] of 2.45 ± 0.15.

As for FPACRVSVTGLDPEARYLFLLDVI [TBX6], the protein stability index is, setting by setting: under setting [1], 2.56 ± 0.53; under setting [2], 2.09 ± 0.24.

Take QPLRTPRDEAIYECVASNNVGEIS [PTPRD]: the protein stability index under setting [1] worked out at 4.88 ± 0.23 and the protein stability index under setting [2] came to 5.13 ± 0.12.

Sequence CRKWNQMMYSAELWRYRTITFSGR [FBXO39] yielded a protein stability index under setting [1] of 2.41 ± 0.28 and a protein stability index under setting [2] of 2.15 ± 0.37.

RLLALIYLAHASDVLENAFAPLLD [GOLPH3]: the protein stability index under setting [1] worked out at 2.65 ± 0.48 and the protein stability index under setting [2] was 2.7 ± 0.71.

In turn, PQVSAHHRSQESLTSQESEDTYL [TBC1D10A] had a protein stability index under setting [3] of 5.4 ± 0.18 and a protein stability index under setting [4] of 5.51 ± 0.16.

Turning to ELFDKLSLRFNGRVLFIKDVIGDE [KCTD10], the protein stability index came out at 2.08 ± 0.22 under setting [1] and 2.82 ± 0.59 under setting [2].

With PGDCFLLLVLLLYAPVGFCLLVLR [AUP1], the protein stability index is 3.1 ± 0.44 under setting [1] and 3.13 ± 0.35 under setting [2].

Take DARIGEAEAKRDAGIREAKAKQEK [FLOT1]: the protein stability index stood at 5.5 ± 0.19 under setting [1] and 5.37 ± 0.19 under setting [2].

Take QCPMRVQKEVAGFVLNRLQYAIIS [CRYL1]: the protein stability index under setting [1] is 3 ± 0.78 and the protein stability index under setting [2] was 2.38 ± 1.

Take DVTLEASRESSKPRAVLKPRRVCV [PPP2R2C]: the protein stability index runs as follows: under setting [1], 3.68 ± 0.1; under setting [2], 3.78 ± 0.21.

Consider RMKETQKSIYYITGESKEQVANSA [HSP90AB1], for which the protein stability index runs as follows: under setting [1], 4.07 ± 0.34; under setting [2], 4.2 ± 0.25.

DVYRDGTGVVEFVRKEDMTYAVRK [SRSF1] gave a protein stability index under setting [1] of 3.96 ± 0.26 and a protein stability index under setting [2] of 4.47 ± 0.18.

On to RFPGRKQPGVHEEPVLKKWPKLKS [C22orf31], for which the protein stability index turned out to be 3.72 ± 0.49 under setting [1] and 3.57 ± 0.15 under setting [2].

Turning to SNITSETGFRTISSLEEIVEKQGD [TMEM192], the protein stability index was found to be 5.44 ± 0.19 under setting [1] and 5.35 ± 0.15 under setting [2].

For the sequence QQCQYRWLRVLNPDLVKGPWTKEE [MYBL2], the protein stability index stood at 2.83 ± 0.38 under setting [1] and 2.9 ± 0.29 under setting [2].

As to ATWMLEVCEEQKCEEEVFPLAMNY [CCND1], the protein stability index is, setting by setting: under setting [1], 3.61 ± 0.16; under setting [2], 3.77 ± 0.25.

As for QVLPDSESLPRSEIDEKVTDLVQF [MAGEA10], the protein stability index reads like this: under setting [1], 5.03 ± 0.3; under setting [2], 4.99 ± 0.35.

As for EKQSRCVNIEWHRFRFGQDQLLLA [WSB1], the protein stability index reads like this: under setting [1], 2.14 ± 0.24; under setting [2], 2.6 ± 0.42.

KEHVPTWLQNTHVYSWPKNKKNIL [TRAF3IP2] showed a protein stability index under setting [1] of 2.71 ± 0.081 and a protein stability index under setting [2] of 3.43 ± 0.24.

Take EAHFMLQVADINDNPPTFSQVSYF [PCDHGA10]: the protein stability index runs as follows: under setting [1], 2.34 ± 0.41; under setting [2], 2.33 ± 0.25.

VILKNSQGEEVAQRSTVFKTTIPE [LMNB1]: the protein stability index came out at 2.67 ± 0.34 under setting [1] and 2.84 ± 0.24 under setting [2].

VPCYSKTQKLSKIETLRLAKNYIW [NEUROD6]: the protein stability index is, setting by setting: under setting [1], 2.43 ± 0.34; under setting [2], 2.81 ± 0.58.

For SNIVIMLVGNKSDLRHLRAVPTDE [RAB11A], the protein stability index by setting is: under setting [1], 2.42 ± 0.34; under setting [2], 2.25 ± 0.28.

On to IDTVYSTAFAPKMIVDLLSEKKTI [OR4A15], for which the protein stability index was determined as 2.37 ± 0.19 under setting [1] and 2.52 ± 0.26 under setting [2].

Take NIDIQNGFLLRYAVIKSNHSYCRM [ASB7]: the protein stability index under setting [1] turned out to be 2.57 ± 0.38 and the protein stability index under setting [2] is 2.54 ± 0.36.

With ILAQQPDRLRDEELAELEDALRNL [TRADD], the protein stability index reads like this: under setting [1], 5.29 ± 0.22; under setting [2], 4.94 ± 0.17.

Regarding KDREFHELQGDFSVPDVPKSMAWC [VPS39], the protein stability index by setting is: under setting [1], 3.5 ± 0.33; under setting [2], 3.31 ± 0.15.

For the sequence MASDHREALLDRESENASLREKLR [LRRC45], the protein stability index worked out at 5.15 ± 0.093 under setting [1] and 4.95 ± 0.16 under setting [2].

As for LREKVEFLRSLRQMKQKVQSLYQE [NFE2L1], the protein stability index runs as follows: under setting [1], 2.09 ± 0.58; under setting [2], 2.82 ± 0.52.

The sequence LREAVPGILRARRGEGIQAPSFSS [SOAT2] came in with a protein stability index under setting [1] of 3.4 ± 0.29 and a protein stability index under setting [2] of 3.44 ± 0.35.

Take PGLPPVPGAPGMPPGIPPLMPGVP [ZNF207]: the protein stability index runs as follows: under setting [1], 4.41 ± 0.2; under setting [2], 4.5 ± 0.24.

As to RAGVQWKFAGSFYFAITVITTIGY [KCNK9], the protein stability index was 3.03 ± 0.064 under setting [1] and 3.11 ± 0.4 under setting [2].

CFKNWDGSPVSSWILLAESNSADD [OAS1]: the protein stability index amounted to 3.04 ± 0.24 under setting [1] and 3.38 ± 0.4 under setting [2].

In the case of QAELQELEERLQLQFEAEMARLQE [MTUS2], the protein stability index is, setting by setting: under setting [1], 4.78 ± 0.38; under setting [2], 4.72 ± 0.29.

Take HSMRNSLESTLAETEARYSSQLAQ [KRT36]: the protein stability index reads like this: under setting [1], 4.53 ± 0.22; under setting [2], 4.57 ± 0.17.
